# According to the nanobody polyreactivity screen of Harvey et al. (2022):
# Assay: yeast display, Sf9 membrane polyspecificity reagent, FACS + sequencing; frameworks hold sequencing errors
# Outline: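 Galactose induction of a Saccharomyces cerevisiae BJ5465 synthetic nanobody display library ran 36–48 hours. The cells were then stained for 1 hour at 4 °C with 10% biotinylated, detergent-solubilized Sf9 membrane reagent, pulled down on streptavidin microbeads and FACS-sorted into low and high (top ~1%) gates on expression and reagent-binding fluorescence. Labels for polyreactivity follow the gate of origin.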
row,Sequence,polyreactivity (PSR sort gate)
1,QVQLVESGGGEVQAGGSLRLICAASGRTFQLNAMGWYRQAPGKERELVAAISTRGGSTYYADSVKGRFTISRDNAKNTVYLQMISLKPEDTAVYYCAARVWTANYEMDLWGQGTQVTVSS,high polyreactivity
2,QVQLVESGGGFDQAGGSLRLSCAASGSIFFYYVMGWYRQAPGKERELVAVISSGGGSTYYADSVKGRFTISRDNAKNTVYLQMNSLKPEDTAVYYCAAGTYYKFYYWGQGTQVTVSS,high polyreactivity
3,QVQLVESGGGFFQAGGSLRLSCAASGSTFGYYTMGWYRQAPGKERELVAAISSGGSRTNYADSVKGRFTISRDNAKNTVYLQMNILKPEDTAVYYCARQSYGGTNRYYYWGQGTQVTVSS,high polyreactivity
4,QVQLVESGGGFVEAGGSLRLSCAASGSIFRSYAMGWYRQAPGKERELVAAISSGDSTNYADTVKRRFTISRDNAQNTGYLQMNSLKPEDTADYYCAADQVQYTGYTEYDWGQGTQVTVSS,low polyreactivity
5,QVQLVESGGGFVPAGGSLRLSCAASGSTFIPYAMGWYRQAPGKERELVAAISSGGRTYYADSVKGRFTISRDNAKNTVYLQMNSVKPEDTAGYYCASTTSPSSARYYYWGQGTQVTVSS,high polyreactivity
6,QVQLVESGGGFVQAGGSLLVSCAASGFTFRYSAMGWYRQAPGKERELVAAIDQNSGRTYYADSGKGRFTISRDNAKNTVYLQMNSLKPEDTAVYYCNVGYPKVPAGSYDYWGQGTQVTVSS,high polyreactivity
7,QVQLVESGGGFVQAGGSLRLICADSGRIFGRYAMGWYRQAPGKERELVAVISARGARTYYADSVKGRFTLSRDNAKNTDYLQMNSLKPEATEVYYCAVDQYATDDYWGQGTQVTVSS,high polyreactivity
8,QVQLVESGGGFVQAGGSLRLSCAACGITFNPNAMGWYRQAPGKERELVAAITANGGNTYYADSVKGRFTISRDNAKNTVYLQMNSLKPEDTAVYYCARRTRRSAGYGEYYYWGQGTQVTVSS,high polyreactivity
9,QVQLVESGGGFVQAGGSLRLSCAASGFIFYQYAMGWYRQAPGKERELVAAISWGGGSTYYADSVKGRFTISRDNAKNTVYLQMNSLKQEDTAVYYCNTDSAPYYWLSDNYDSCGQGTQVTVSS,low polyreactivity
10,QVQLVESGGGFVQAGGSLRLSCAASGFTFFPYAMGWYRQAPGNEWELVAAISWSGGRTYYADSVKGRFTISRDNAKNTVYLHMNSLKPEDTAVYYCNARWRSGPRAYDYWGHGTQVTVSS,high polyreactivity
11,QVQLVESGGGFVQAGGSLRLSCAASGRIFAFYTMGWSRQAPGKEREFVAAISRSGGSTYYADSVKGRFTISRDNAKNTVYLQMNSLKPEDTAVYYCAKGGYSPKRVKYYDYWGQGTQVTVSS,low polyreactivity
12,QVQLVESGGGFVQAGGSLRLSCAASGRLFFIYAMGWYRQAPGKDRELVAAITGRGGRTYYADSVKGRFTISRDKPKNTVYLEMYSQKPEDTAVYYCAADSRDSYLFYYWGQGTQVTVST,high polyreactivity
13,QVQLVESGGGFVQAGGSLRLSCAASGRTFGHNDMGWYIQAPGKERELVATNSADGSTNYADSVKGRITISRDNEKKTVKLQMNSLKPEDTAVSYCAKDYQYVAYDYWGQGTQVTVSS,low polyreactivity
14,QVQLVESGGGFVQAGGSLRLSCAASGRTFIYNAMGWYRQAPGKERELVARISSGGGNTYYADSVKGRFTISRDNAKNPVYLQINSLKPEDTAVYYGAKGWRPSFSYYWGQGTQVTVSS,high polyreactivity
15,QVQLVESGGGFVQAGGSLRLSCAASGSIFSVNTMGWYRQAPGKERELVATIRTGDSTNYADSVTGRFTISRDNAKNTVYLQMNSLKPEDTAVDYCAAEWSSLNFDYWGQGTQVTVSS,low polyreactivity
16,QVQLVESGGGFVQAGGSLRLSCAASGSILRSYAMGWYRQAPGKERELVAVINGSGGRTYYADSVKGRFTISRDNAKNTVYLQMNSLKPEDTAVYYCNADPGGRYPRRGYAHEGDYWGQGTQVTVSS,low polyreactivity
17,QVQLVESGGGFVQAGGSLRLSCAASGSTFSHYTMGWYSQAPGNERELLAAINYGGASTYYADSVKGRFTISRDNAKNTVYLQMNSQKPEDTAVYYCAAANRPSEQDNYWGQGTQVTVSS,low polyreactivity
18,QVQLVESGGGFVQAGGSLRLSCAASGSTFYTYTLGWYRQAPGKERELVAAISSSGGDTYYADSVKGRFTISRDNAKNTVYLQMNSLKPEDTAVYYCAALGAFPSLEFDYWGQGTQVTVSS,low polyreactivity
19,QVQLVESGGGFVQAGGSLRLSCAATGSIFPQNAMGWYRQAPGKERELVASISSGGRTNYADSVKGRFTISRDYAKNTVYLQMNSLKPEDSAVYFCAKTRIRYKPLHFYYWGQGTQVTVSS,low polyreactivity
20,QVQLVESGGGFVQAGGSLRLSCASSGRIFYRNAMVWYRQAPGKESELVAAILGSGGRTYYADSVKGSFTISRDTAKNNVYLQMNSMKPEVTAVYYCAAYGYYVEHPRGLSGPYDDDYWGQGTQVTVSS,low polyreactivity
21,QVQLVESGGGFVQAGGSLRLSCASSGRTFRLYAMGWYRQAPGKERELVDVIRSGDSTNYADSVKGRFTISSDNAKNTVYLQMNSVKPEDTAVYYCAADVLYYYGKYDYWGQGTQVTVSS,high polyreactivity
22,QVQLVESGGGFVQAGGSLRLSSAASGRTFYFYTMLWYRQAPGKERELVAAISWSGGSTYYADSVKGRFTISRDNAKNTVYLQMNSLKPEDTAVYYCAASSPWDQSNDQFYYWGQGTQVTVSS,low polyreactivity

row,Sequence,polyreactivity (PSR sort gate)
1,QVQLVESGGGFVQAGGSLRLSSAASGSTFYRYAMGWYRQAPGKEREFVAAISRSGGSTYYADSVKRRFTLSRDNAKNTVYLQMNSLKPEDTAVEYCNKYYWYPYGRAQDYGYWGQGTQVTVSS,high polyreactivity
2,QVQLVESGGGIDQAGGSLRLSCAATGLTFWLNPMGWYRQAPWKERELVAAIRYSGGGTYADSVKGRFTISRDNAKNTVSLQMNSLKQEVTAVYYCAALYNLGYPQFDYWGQGNQVTVSS,low polyreactivity
3,QVQLVESGGGILQAGGSLRLSCAASGSTFSYYAMGWYRQAPGKERELVAAISYSGGRTYYADSVKGRFTISRDNAKNTVYLQMNSLKPEDTAVYYCAASGVFDSTRGVYYWGQGTQVTVSS,high polyreactivity
4,QVQLVESGGGIVQAGGRLRLSCAASGFTFGKYAMGWYRQAPGKERELVAAISRSGGSTYYADSVKGRFTISRDNAKFTVYLPMNSLKPVDTAVYYCAAYHPIQEYDYWGQGTQVTGSS,high polyreactivity
5,QVQLVESGGGIVQAGGRLRLSCAASGSTFPSKAMGWYRQAPGKERELVAAISRGGTTNYADSVKGRFTISRDNAKNTVYLQMNSLKPEDTAVYYCAKVYKLYWYKAYRRDYWGQGTQVTVSS,high polyreactivity
6,QVQLVESGGGIVQAGGSHRLSCAASGRTFRYNAMGWYRQAPGKERELVAAISGRGSSTYYADSVKGRFTISRDNAKNTVYLQMNSLKPEDTAVYYCAALPASVRRPGWHDYWGQGTQVTVSS,high polyreactivity
7,QVQLVESGGGIVQAGGSLLLSCAASGSISFLYTMGWYRQAPGKERELVAAITGSTASTYYADSVKGRFTISRDNAKNTVYLQMNSLKPEDTAVYYCAAYWYAEGYWVSRDYWGQGTQVTVSS,low polyreactivity
8,QVQLVESGGGIVQAGGSLLLSCPASGRIFGVYAMGWYRQAPGKERELVAGINGGDSTYYADSVKGRFTISRDNAKNTVYLQMNSLKPEDTAVYYCAAEADESGSNYDYWGQGSQVTVSS,low polyreactivity
9,QVQLVESGGGIVQAGGSLRISSAASGSIFGYYAMGWYIQEPGKERELVADITVRGGSTYYADSVKGRFTISRDNAKNTVYLQMNSLKPEDTAVYYCAAAQYTFWDGDSWGQGTQVTVSS,high polyreactivity
10,QVQLVESGGGIVQAGGSLRLICAASGIIFPVYAMGWYRPAPGKERELVAAISRSGGSTYYADSVKGRFTISRDHAKNTVYLQMNSLKPEDTAVYYCAARYVVGYSLSSYGYWGQGTQVTVSS,high polyreactivity
11,QVQLVESGGGIVQAGGSLRLLCAASGRNIINYDMGWYRQAPGKERELVAAITWSTGSTYADSVNGRFTISRDNAKNTVYLQMNSLSPEDTAVYYCAAPWGQTDDRHQGGDYWGQGTQVTVSS,low polyreactivity
12,QVQLVESGGGIVQAGGSLRLSCAASGFIFKRYAMGWYRQAPGKERELVAAITTSGGRTYYADSVKGRFTISRDNAKNTVYLLMNSLKPEDTAVYYCNADYGTYWWPYYYWGQGTQVTVSS,high polyreactivity
13,QVQLVESGGGIVQAGGSLRLSCAASGFTFGLYAMGWYRQAPGKERELVAVISSSGGSTYYADSVKGRFTISRDNAKNTVYLQMNSLKPEDTAVYYCAAEWHDYKFDVTYDYWGQVTQVTVSS,low polyreactivity
14,QVQLVESGGGIVQAGGSLRLSCAASGFTFGSNAMGWYRQAPGKERELVAAISRSSGRTYYADSVKGRFTISRDNAKNNVYLHMNSLKQEDTAVYYCDAQTPYRISLQYYYWGQGTQVTVSS,high polyreactivity
15,QVQLVESGGGIVQAGGSLRLSCAASGFTFGSYAMGWYRQAPGKEREFVAAIRRSGSSTYYADSVKGRFTISRDNAKNTVYLQMNSLKPEDTAVYYCAADVYRRLRRYRYYYWGQGTQVTVSS,low polyreactivity
16,QVQLVESGGGIVQAGGSLRLSCAASGFTFYYNAMGWYRQAPGKERELVAAISYRGGSTYYADSVKGRFTISRDNAKNTVYFQMNSLKPEDTAVYYCATRDPAFYRRYDYWGQATQVTVSS,high polyreactivity
17,QVQLVESGGGIVQAGGSLRLSCAASGGIFYRNAMGWYRQAPGKERELVAAISWRGGSTYYADSVKGRFTNSRDNAKNTVYLQMNSLKPEDTAVYFCAARSVATYRYDYWGQGTQVTVSS,high polyreactivity
18,QVQLVESGGGIVQAGGSLRLSCAASGIIFRAYAMGWSRQAPGKERELVAAISWSGGSTYYADSVKGRFTISRDNAKYTVYLQMNSLNPEDTAVYYCAAESLVYDFDYWGQGTQVTVSS,high polyreactivity
19,QVQLVESGGGIVQAGGSLRLSCAASGITFDLYAMGWSRQAPGKERELVAASTYYADSVKWRFTISRDYAKNTVYLQMNSLKPEDTAVYYCITREPVTSDYWGLGTQVTVSS,high polyreactivity
20,QVQLVESGGGIVQAGGSLRLSCAASGITSYFNAMGWYRQAPGKERELVAITWNGGSTYYADSVKGRFTITRDNAKNTVYLQMNSLKPEDTAVYYCAARYRRYNRKYDYWGQGTQVTVSS,high polyreactivity
21,QVQLVESGGGIVQAGGSLRLSCAASGLIFYYYALGWYRQAPGKERQLVAAITSGSTTYADSVKGRFTISRDNAKNTVYLQMNSLKPEDTAVYYCNKDQDYKLTTTFDYDYWGQGTQVTVSS,low polyreactivity
